B1: Rho guanine nucleotide exchange factor 7 (Homo sapiens), Q14155 (parent)
chain: MNSAEQTVTWLITLGVLESPKKTISDPEGFLQASLKDGVVLCRLLERLLPGTIEKVYPEPRSESECLSNIREFLRGCGASLRLELLFPPSQPPQHLVTTILLSASTFDANDLYQGQNFNKVLSSLVTLNKVTADIGLGSDSVCARPSSHRIKSFDSLGSQSLHTRTSKLFQGQYRSLDMTDNSNNQLVVRAKFNFQQTNEDELSFSKGDVIHVTRVEEGGWWEGTLNGRTGWFPSNYVREVKASEKPVSPKSGTLKSPPKGFDTTAINKSYYNVVLQNILETENEYSKELQTVLSTYLRPLQTSEKLSSANISYLMGNLEEICSFQQMLVQSLEECTKLPEAQQRVGGCFLNLMPQMKTLYLTYCANHPSAVNVLTEHSEELGEFMETKGASSPGILVLTTGLSKPFMRLDKYPTLLKELERHMEDYHTDRQDIQKSMAAFKNLSAQCQEVRKRKELELQILTEAIRNWEGDDIKTLGNVTYMSQVLIQCAGSEEKNERYLLLFPNVLLMLSASPRMSGFIYQGKLPTTGMTITKLEDSENHRNAFEISGSMIERILVSCNNQQDLQEWVEHLQKQTKVTSVGNPTIKPHSVPSHTLPSHPVTPSSKHADSKPAPLTPAYHTLPHPSHHGTPHTTINWGPLEPPKTPKPWSLSCLRPAPPLRPSAALCYKEDLSKSPKTMKKLLPKRKPERKPSDEEFASRKSTAALEEDAQILKVIEAYCTSAKTRQTLNSTWQGTDLMHNHVLADDDQPSLDSLGRRSSLSRLEPSDLSEDSDYDSIWTAHSYRMGSTSRKSCCSYISHQN
partner: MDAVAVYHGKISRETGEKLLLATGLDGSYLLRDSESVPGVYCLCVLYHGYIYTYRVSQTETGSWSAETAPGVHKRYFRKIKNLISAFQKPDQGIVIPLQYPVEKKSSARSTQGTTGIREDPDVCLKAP
B2: SH2 domain-containing protein 1A (Homo sapiens), O60880-1 (parent)
chain: B1 partner

The variants in the first experiment derive from B1. The settings on record: with SH2D1A.
For W221P;W222G, the “effect of a mutation on the interaction” value is “disrupting interaction strength”.

In a further experiment the parent is B2. The settings on record: with arhg7_human ARHGEF7, Q14155.
As to MDAVAVYHGKISRETGEKLLLATGLDGSYLLRDSESVPGVYCLCVLYHGYIYTYRVSQTETGSWSAETAPGVHKRYFAKIKNLISAFQKPDQGIVIPLQYPVEKKSSARSTQGTTGIREDPDVCLKAP, the “effect of a mutation on the interaction” value is reported as “disrupting interaction strength”.
